Measurements taken from patent US10487318.

Assays:
[1] = target: T1, 26mer peptide (FLQPQQPFPQQPQQPYPQQPQQPFPQ)
T1 chain: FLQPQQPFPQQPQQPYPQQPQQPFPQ

[2] = target: T2, γ-gliadin peptide (IQPQQPAQL)
T2 chain: IQPQQPAQL

[3] = target: T3, fluorescent analogue of gliadin, hexapeptide QPQLPY conjugated to a fluorophore and a quencher
T3 chain: QPQLPY

[4] = target: T4, Glia_56-79 peptide (LQLQPFPQPQLPYPQPQLPY)
T4 chain: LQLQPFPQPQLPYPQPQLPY

[5] = target: T5, α9-gliadin peptide (QLQPFPQPQLPY)
T5 chain: QLQPFPQPQLPY

[6] = target: T6, α2-gliadin peptide (PQPQLPYSQPQPFR)
T6 chain: PQPQLPYSQPQPFR

[7] = target: T7, 33mer peptide (LQLQPFPQPQLPYPQPQLPYPQPQLPYPQPQPF)
T7 chain: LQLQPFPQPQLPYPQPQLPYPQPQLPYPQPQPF

[8] = target: T8, fluorescently quenched α-gliadin hexapeptide analogue QXL520-PQPQLP-K(5-FAM)-NH2
T8 chain: PQPQLP

B1: Homologue 9 (NCBI YP_005042475) (protein)
chain: MTKQPVSGSSDKIHPDDAKCIGDCDPSEQIEVIVMLRRKDEAGFRQMMSRIDAGEAPGQAVSREEFDRRFTASDEDIDKVKAFAKQYGLSVERAETETRSVVLKGTIEQFQKAFDVKLERFQHHNIGEYRGRTGPVNVPDEMHDAVTAVLGLDSKPQARPHFRFRPPFKPLRGAAPASFSPVDLAKLYDFPDGDGAGQCIAIIELGGGYRDSDLSAYFSKLGVKAPTVVPVGVDGGKNAPTGNPNGPDGEVTLDIEIAGAIAPGARIAVYFAPNSDAGFVDAVNRALHDAANKPSVISISWGGPESNWSPQSMSAFNDVLQSAAALGVTVCAASGDGGSADGVGDGADHVDFPASSPYVLGCGGTSLAASGAGIAKEVVWNDGDQGGAGGGGVSGTFALPVWQKGLSVTRNGKHIALAKRGVPDVAGDASPQTGYEVLIDGEDTVVGGTSAVAPLWAALIARINAIDASPAGFVNPKLYKAKTAFRDITEGNNGSFSAAAGWDACTGMGSPDGGKIAAALKPAKPSQSAGQQ
**Q.** For B1, which “activity on peptide (percent)” value [1] is on record?
**A.** Its value is 52%.

**Q.** And the “grade and % of peptide after an 80-min incubation” value (from here on “grade and % of peptide”) [2]?
**A.** The value was “++/-; 32%”.

**Q.** And the “rate of degradation of the fluorescent hexapeptide, pH 4.0, 37° C.” value (“rate” for short) [3]?
**A.** The value was “had activity comparable to or better than Kumamolisin under these conditions”.

**Q.** What about the “grade and % of peptide” value [4] of the same protein?
**A.** Its value is “+; 9%”.

**Q.** And the “grade and % of peptide” value [5]?
**A.** Its value is “+/-; 62%”.

**Q.** And the “grade and % of peptide” value [6]?
**A.** The value was “++ (undetect)”.

B2: Kumamolisin-As (wild type) (protein)
chain: MSDMEKPWKEGEEARAVLQGHARAQAPQAVDKGPVAGDERMAVTVVLRRQRAGELAAHVERQAAIAPHAREHLKREAFAASHGASLDDFAELRRFADAHGLALDRANVAAGTAVLSGPVDAINRAFGVELRHFDHPDGSYRSYLGEVTVPASIAPMIEAVLGLDTRPVARPHFRMQRRAEGGFEARSQAAAPTAYTPLDVAQAYQFPEGLDGQGQCIAIIELGGGYDEASLAQYFASLGVPAPQVVSVSVDGASNQPTGDPSGPDGEVELDIEVAGALAPGAKFAVYFAPNTDAGFLDAITTAIHDPTLKPSVVSISWGGPEDSWTSAAIAAMNRAFLDAAALGVTVLAAAGDSGSTDGEQDGLYHVDFPAASPYVLACGGTRLVASGGRIAQETVWNDGPDGGATGGGVSRIFPLPAWQEHANVPPSANPGASSGRGVPDLAGNADPATGYEVVIDGEATVIGGTSAVAPLFAALVARINQKLGKAVGYLNPTLYQLPADVFHDITEGNNDIANRAQIYQAGPGWDPCTGLGSPIGVRLLQALLPSASQPQPGSTENLYFQSGALEHHHHHH
**Q.** For B2, which “grade and % of peptide” value [2] is on record?
**A.** The value was “++/-; 39%”.

**Q.** And the “rate” value [3]?
**A.** Its value is “Kumamolisin has some activity breaking down these gliadin substrates”.

**Q.** And the “grade and % of peptide” value [4]?
**A.** The value was “+++; 0.2%”.

**Q.** And the “Degradation pattern of 33mer (60 min)” value [7]?
**A.** Its value is “degrades the 33-mer down at only a single location (WT-like)”.

**Q.** And the “activity on peptide (percent)” value [7]?
**A.** Its value is 18%.

**Q.** What about the “grade and % of peptide” value [5] of the same protein?
**A.** Its value is “++; 2%;”.

**Q.** And the Fold Change in Activity of PQ Hydrolysis Relative to Wild Type Kumamolysin-As [8]?
**A.** The Fold Change in Activity of PQ Hydrolysis Relative to Wild Type Kumamolysin-As was 1 fold.

**Q.** And the “grade and % of peptide” value [6]?
**A.** Its value is “++ (undetect)”.

B3: KumaMax™ (protein)
chain: MSDMEKPWKEGEEARAVLQGHARAQAPQAVDKGPVAGDERMAVTVVLRRQRAGELAAHVERQAAIAPHAREHLKREAFAASHGASLDDFAELRRFADAHGLALDRANVAAGTAVLSGPDDAINRAFGVELRHFDHPDGSYRSYLGEVTVPASIAPMIEAVLGLDTRPVARPHFRMQRRAEGGFEARSQAAAPTAYTPLDVAQAYQFPEGLDGQGQCIAIIELGGGYDEASLAQYFASLGVPAPQVVSVSVDGASNQPTGDPKGPDGEVELDIEVAGALAPGAKFAVYFAPDTTAGFLDAITTAIHDPTLKPSVVSISWSGPEDSWTSAAIAAMNRAFLDAAALGVTVLAAAGDSGSTGGEQDGLYHVHFPAASPYVLACGGTRLVASGGRIAQETVWNDGPDGGATGGGVSRIFPLPAWQEHANVPPSANPGASSGRGVPDLAGNADPATGYEVVIDGEATVIGGTSAVAPLFAALVARINQKLGKAVGYLNPTLYQLPADVFHDITEGNNDIANRAQIYQAGPGWDPCTGLGSPIGVRLLQALLPSASQPQPGSTENLYFQSGALE
**Q.** What does the source list for B3?
**A.** activity on peptide (percent) [1]: 26%; grade and % of peptide after an 80-min incubation [2]: +/-; 55%; grade and % of peptide after an 80-min incubation [4]: ++++; Degradation pattern of 33mer (60 min) [7]: degrades the 33-mer at multiple locations (Max-like); activity on peptide (percent) [7]: 0.1%; grade and % of peptide after an 80-min incubation [5]: ++; 0.9%; grade and % of peptide after an 80-min incubation [6]: +/-; 65%

B4: Homologue 2 (NCBI ZP_04943175) (protein)
chain: MQRGTKEGLNMARHLQADREPRIVPESKCLGQCDPAERIHVTIMLRRQEEGQLDALVHQLATGDARAKPVSRDAFAQRFSANPDDIRKTEDFAHRHQLTVDRVDPVESVVVLSGTIAQFEAAFSVKLERFEHRSIGQYRGRSGPIVLPDDIGDAVTAVLGLDSRPQARPHFRFRPPFKPARGAAAVTFTPIQLASLYDFPAGDGAGQCIAIIELGGGYRAADIQQYFRGLGITTPPKLVDVNVGTGRNAPTGEPNGPDGEVALDIEIAGAIAPAAKIAVYFAPNSDAGFIQAVNAAVTDKTNQPSVISISWGGPEAIWQAQSAQAFNRVLQAAAAQGITVCAASGDSGSGDGLQDGADHVDFPASSPYVLGCGGTQLDALPGQGIRSEVTWNDEASGGGAGGGGVSALFDLPAWQQGLKVARADGTTTPLAKRGVPDVAGDASPQTGYEVSVAGTPAVMGGTSAVAPLWAALIARINAANGASAGWINPVLYKHPGALRDITKGSNGTYAAASGWDACTGLGSPNGAQLATILARKPSS
**Q.** Which “grade and % of peptide” value [2] does the source give for B4 here?
**A.** Its value is “+/-; 65%”.

**Q.** And the “rate” value [3]?
**A.** The value was “had activity comparable to or better than Kumamolisin under these conditions”.

**Q.** What about the “grade and % of peptide” value [4] of the same protein?
**A.** Its value is “++; 0.2%”.

**Q.** What about the “activity on peptide (percent)” value [7] of the same protein?
**A.** The value was 31%.

**Q.** What about the “grade and % of peptide” value [5] of the same protein?
**A.** The value was “++/-; 37%;”.

**Q.** What about the “grade and % of peptide” value [6] of the same protein?
**A.** The value was “++ (undetect)”.

B5: Homologue 4 mutant (protein)
chain: MANHPLNGSERECLKDAQPIGKADPNERLEVTMLVRRRSHDAFEKHISALAAQGASAKHIDHDEFTKHFGADSADLAAVHAFAQKHGLSVVESHEARRAVVLSGTVAQFDAAFGVSLQQYEHDGGTYRGRTGPIHLPDELNGVVDAVMGLDNRPQARPSFRTRAQGNVRWTARAAGASTFTPVQLASLYDFPQGDGQNQCIGIIELGGGYRPADLKTYFASLNMKAPSVTAVSVDHGRNHPTGDPNGPDGEVMLDIEVAGAVAPGAKIVVYFAPNTDAGFIDAIGTAIHDTKNKPSVISISWSGPESAWTQQAMNAFDQAFQSAAALGVTICAASGDNGSGGGVGDGADHVHFPASSPYALGCGGTSLQASGNGIASETVWNDGANGGATGGGVSSFFALPAWQEGLRVTRAGGAHSPLAMRGVPDVAGNADPVTGYEVRVDGHDMVIGGTSAVAPLWAGLIARINAIKGAPVGYINPHLYKDPLALVDITKGNNDDFHATAGWDACTGLGRPDGKKVKDAVS
**Q.** What does the source list for B5?
**A.** activity on peptide (percent) [1]: 19%; activity on peptide (percent) [7]: 10%
